The values below come from paper PMC7937711, “Development and Characterization of Nanobodies Targeting the Kupffer Cell” (Frontiers in Immunology, 2021).

Assay [1] addresses Nb3.60 (alpaca (Vicugna pacos)). Nature of the assay: SDS-PAGE; 10% SDS-PAGE with Coomassie staining of the nanobody preparations after IMAC and dialysis.
For assay [2], the target named is T1, recombinant mouse Clec4F (CLEC4F/CLECSF13), soluble extracellular domain Ala65-Gly548 (Mus musculus, UniProt P70194).
T1 construct: Clec4F (C-type lectin domain family 4, member F), mouse, soluble extracellular domain Ala65-Gly548; the oligomeric state of the bought protein was not measured here; also called mClec4F; mouse Kupffer cell receptor Clec4F; source: bought: R&D Systems (NS0-derived, mouse myeloma cell line)
Nature of the assay: SPR; Biacore T200; 400 RU of recombinant mouse Clec4F coupled to a CM5 chip; nanobodies flown at 30 ul/min at 1-400 nM; 1:1 binding model. Particulars: both partners purified. For orientation: Surface plasmon resonance follows binding to a sensor surface in real time, without labels.

Assay [3] addresses T1, recombinant mouse Clec4F …. The assay is described as follows: SPR; epitope binning: Clec4F immobilised on the chip; 1st nanobody injected (50 nM) to saturation, then a mix of 1st and 2nd nanobody; extra RU read. Particulars: both partners purified.

B1: Nb3.60 (VHH)
VHH: QVQLVESGGGLVQPGGSLRLSCVASGTIFSMYGVYWYRQAPGNQREVVAWISSSGNTNYVNAVKGRFTISRDNAKNTTWLQMHSLKPEDAAVYYCRLGMNYWGKGTQVTVSS
notes: The preparation held dimers beside monomers (SDS-PAGE); also called R2-60; group G3; source: E. coli WK6 periplasm, purified (IMAC Ni-NTA, dialysis)
The stoichiometry N is a count of units in the complex or per binding partner. As a reminder, the Kd is the constant that tells how readily two partners part at equilibrium. By koff is commonly meant the first-order rate constant of dissociation. As usually defined, the kon is a measure of how fast the partners come together. On to B1, for which the stoichiometry N in assay [1] turned out to be 2. Moreover, in assay [2], the Kd is 0.618 nM, the dissociation rate constant (koff) came out at 0.00475 s⁻¹ and the kon amounted to 7.69e+06 M⁻¹ s⁻¹.

B2: Nb6.39 (VHH)
VHH: QVQLVESGGGLVQPGGSLRLSCAASGFTFSTYAMRWVRQAPGKGLEWVSDINQGGGVTSYRDSVLGRFTISRDDAKNTLYLQMNSLKREDTAVYYCTNGRSRGQGTQVTVSS
notes: also called R3-39; group G6; source: E. coli WK6 periplasm, purified (IMAC Ni-NTA, dialysis)
Turning to B2, the binding result in assay [3] is “binds”.
